The text below walks through data of patent US20260286308A1, “COMPOSITION CONTAINING EXTRACELLULAR MATRIX AND MATRIX-BOUND VESICLES FOR PRODUCING EXTRACELLULAR MATRIX AND PREPARATION METHOD THEREFOR” (HLB CELL CO., LTD, priority 2023, published 2026).

Test [1] relates to Human fibroblasts. Put plainly: Total collagen content in cell culture of single-cultured human fibroblasts (Sirius Red kit, absorbance 530 nm). The conditions noted are these: 10 ng/mL epidermal growth factor added alone (Table 3 No. 2); FIG. 17.
Experimental: To measure the human collagen content in the extracellular matrix present in a culture obtained according to each example described below, quantitative analysis was conducted by utilizing a commercially available Sirius Red kit (Chondrex, #9062). The analysis method followed the manufacturer's instructions. Specifically, Sirius Red solution was added to the culture, followed by incubation, and the precipitated collagen was then mixed with an acidic solution and quantitatively analyzed by measurement of absorbance at 530 nm.
Human fibroblasts were seeded at a density of 3×10^5 cells per 150-mm^2 culture dish. The cells were cultured in high-glucose Dulbecco's Modified Eagle's Medium (DMEM) supplemented with 10% fetal bovine serum and 1% penicillin for 7 days while a growth medium was exchanged every 2-3 days.
(§1) After being cultured according to Example 1.1.1, the cells were further cultured from day 8 using a serum-free/xeno-free culture medium [Dulbecco's Modified Eagle Medium: Ham's F-12 (1:1) supplemented with 100 (DMEM/F12) U/mL penicillin/streptomycin, 2 mM L-alanyl-L-glutamine, 5 μg/L selenium, 50 M ascorbate-2-phosphate, 10 mg/L insulin, 1 μM hydrocortisone, 0.02 nM triiodothyronine, 1 μM isoprenaline, and 10 μg/L epidermal growth factor] while the medium was exchanged at intervals of 2 to 3 days. […] The cell culture after collection was analyzed according to Example 3. […]
Test [2] has as its system Human fibroblasts. Put plainly: Laminin content in cell culture of single-cultured human fibroblasts (anti-human laminin antibody plate kit, absorbance 450 nm). The conditions noted are these: 10 ng/mL epidermal growth factor added alone (Table 3 No. 2); FIG. 16.
Experimental: To measure the amount of human laminin component in the extracellular matrix present in a culture obtained according to each example described below, quantitative analysis was conducted by using a commercially available analysis kit (TakaRa, MK107). The analysis method followed the manufacturer's instructions. Specifically, the culture was added onto a 96-well plate coated with an anti-human laminin antibody, followed by incubation. Thereafter, residues were washed off, and a chromogenic enzyme-conjugated specific antibody was added, followed by incubation. Then, quantitative analysis was conducted by measurement of the absorbance at 450 nm.
Human fibroblasts were seeded at a density of 3×10^5 cells per 150-mm^2 culture dish. […]
as §1
The test system of test [3] is Human fibroblasts. How it is done:
The analysis method followed the manufacturer's instructions.
Culture media each lacking an individual factor were prepared, and then culture was performed according to Example 1.1.
Then, culture was performed according to Example 1.1.

B1: epidermal growth factor: growth factor / ErbB signaling factor added to the serum-free/xeno-free culture medium (protein, UniProt P01133 23-1207, looked up)
Pro-epidermal growth factor: PQHWSCPEGTLAGNGNSTCVGPAPFLIFSHGNSIFRIDTEGTNYEQLVVDAGVSVIMDFHYNEKRIYWVDLERQLLQRVFLNGSRQERVCNIEKNVSGMAINWINEEVIWSNQQEGIITVTDMKGNNSHILLSALKYPANVAVDPVERFIFWSSEVAGSLYRADLDGVGVKALLETSEKITAVSLDVLDKRLFWIQYNREGSNSLICSCDYDGGSVHISKHPTQHNLFAMSLFGDRIFYSTWKMKTIWIANKHTGKDMVRINLHSSFVPLGELKVVHPLAQPKAEDDTWEPEQKLCKLRKGNCSSTVCGQDLQSHLCMCAEGYALSRDRKYCEDVNECAFWNHGCTLGCKNTPGSYYCTCPVGFVLLPDGKRCHQLVSCPRNVSECSHDCVLTSEGPLCFCPEGSVLERDGKTCSGCSSPDNGGCSQLCVPLSPVSWECDCFPGYDLQLDEKSCAASGPQPFLLFANSQDIRHMHFDGTDYGTLLSQQMGMVYALDHDPVENKIYFAHTALKWIERANMDGSQRERLIEEGVDVPEGLAVDWIGRRFYWTDRGKSLIGRSDLNGKRSKIITKENISQPRGIAVHPMAKRLFWTDTGINPRIESSSLQGLGRLVIASSDLIWPSGITIDFLTDKLYWCDAKQSVIEMANLDGSKRRRLTQNDVGHPFAVAVFEDYVWFSDWAMPSVMRVNKRTGKDRVRLQGSMLKPSSLVVVHPLAKPGADPCLYQNGGCEHICKKRLGTAWCSCREGFMKASDGKTCLALDGHQLLAGGEVDLKNQVTPLDILSKTRVSEDNITESQHMLVAEIMVSDQDDCAPVGCSMYARCISEGEDATCQCLKGFAGDGKLCSDIDECEMGVPVCPPASSKCINTEGGYVCRCSEGYQGDGIHCLDIDECQLGEHSCGENASCTNTEGGYTCMCAGRLSEPGLICPDSTPPPHLREDDHHYSVRNSDSECPLSHDGYCLHDGVCMYIEALDKYACNCVVGYIGERCQYRDLKWWELRHAGHGQQQKVIVVAVCVVVLVMLLLLSLWGAHYYRTQKLLSKNPKNPYEESSRDVRSRRPADTEDGMSSCPQPWFVVIKEHQDLKNGGQPVAGEDGQAADGSMQPTSWRQEPQLCGMGTEQGCWIPVSSDKGSCPQVMERSFHMPSYGTQTLEGGVEKPHSLLSANPLWQQRALDPPHQMELTQ
modifications: Pro-epidermal growth factor
Molecule B1 displayed a total collagen concentration with Human fibroblasts [1] of 56.94 µg/mL. In the test with Human fibroblasts [2], the laminin concentration worked out at 2.68 µg/mL. In addition, in the test with Human fibroblasts [3] (10 ng/mL epidermal growth factor added alone, compared with FGF-2, KGF and combinations (Table 3)), the “amount of extracellular matrix produced, compared among growth factor groups” value is “highest amount”. Also, the “amount of extracellular matrix produced” value with Human fibroblasts [3] (factor individually removed from serum-free/xeno-free culture medium (Table 1), compared with medium containing all factors, FIGS. 8 and 9) is reported as “significantly reduced”.
